B1: Polyadenylate-binding protein-interacting protein 2 (Homo sapiens), Q9BPZ3 (parent)
chain: MKDPSRSSTSPSIINEDVIINGHSHEDDNPFAEYMWMENEEEFNRQIEEELWEEEFIERCFQEMLEEEEEHEWFIPARDLPQTMDQIQDQFNDLVISDGSSLEDLVVKSNLNPNAKEFVPGVKYGNI

Variants of: B1
Conditions: with pabp1_human PABPC1, P11940
Chain of pabp1_human PABPC1, P11940 (P11940 whole entry): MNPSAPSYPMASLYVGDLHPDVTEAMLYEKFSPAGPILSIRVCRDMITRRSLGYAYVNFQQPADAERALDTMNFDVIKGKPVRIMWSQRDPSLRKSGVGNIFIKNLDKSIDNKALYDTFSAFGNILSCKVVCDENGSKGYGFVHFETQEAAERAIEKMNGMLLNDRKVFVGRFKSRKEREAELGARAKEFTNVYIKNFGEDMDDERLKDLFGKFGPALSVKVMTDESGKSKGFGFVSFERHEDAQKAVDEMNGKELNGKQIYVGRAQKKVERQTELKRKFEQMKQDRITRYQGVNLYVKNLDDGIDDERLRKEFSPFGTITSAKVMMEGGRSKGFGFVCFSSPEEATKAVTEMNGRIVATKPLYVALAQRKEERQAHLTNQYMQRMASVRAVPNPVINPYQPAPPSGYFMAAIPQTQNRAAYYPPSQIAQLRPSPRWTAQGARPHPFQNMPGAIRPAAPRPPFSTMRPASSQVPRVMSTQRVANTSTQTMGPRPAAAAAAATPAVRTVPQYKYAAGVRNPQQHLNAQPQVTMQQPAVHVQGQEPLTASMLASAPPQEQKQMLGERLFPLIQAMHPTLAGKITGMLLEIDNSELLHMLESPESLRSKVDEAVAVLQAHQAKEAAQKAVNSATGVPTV

Variant | effect of a mutation on the interaction
MKDPSRSSTSPSIINEDVIINGHSHEDDNPFAEYMWMENEEEFNRQIEEELWEEEFIERCFQEMLEEEEEHEWFIPARDLPQTMDQIQDQFNDLVISDGSSLEDLVVKSNLNANAKEFVPGVKYGNI [P113A] | decreasing interaction
MKDPSRSSTSPSIINEDVIINGHSHEDDNPFAEYMWMENEEEFNRQIEEELWEEEFIERCFQEMLEEEEEHEWFIPARDLPQTMDQIQDQFNDLVISDGSSLEDLVVKSNLNPNAAEFVPGVKYGNI [K116A] | decreasing interaction
MKDPSRSSTSPSIINEDVIINGHSHEDDNPFAEYMWMENEEEFNRQIEEELWEEEFIERCFQEMLEEEEEHEWFIPARDLPQTMDQIQDQFNDLVISDGSSLEDLVVKSNLNPNAKAFVPGVKYGNI [E117A] | decreasing interaction
MKDPSRSSTSPSIINEDVIINGHSHEDDNPFAEYMWMENEEEFNRQIEEELWEEEFIERCFQEMLEEEEEHEWFIPARDLPQTMDQIQDQFNDLVISDGSSLEDLVVKSNLNPNLKEFVPGVKYGNI [A115L] | decreasing interaction
MKDPSRSSTSPSIINEDVIINGHSHEDDNPFAEYMWMENEEEFNRQIEEELWEEEFIERCFQEMLEEEEEHEWFIPARDLPQTMDQIQDQFNDLVISDGSSLEDLVVKSNANPNAKEFVPGVKYGNI [L111A] | decreasing interaction

Second part, the variant after the results:

effect of a mutation on the interaction | Variant
decreasing interaction | MKDPSRSSTSPSIINEDVIINGHSHEDDNPFAEYMWMENEEEFNRQIEEELWEEEFIERCFQEMLEEEEEHEWFIPARDLPQTMDQIQDQFNDLVISDGSSLEDLVVKSNLNPNAKEFVAGVKYGNI [P120A]
disrupting interaction | MKDPSRSSTSPSIINEDVIINGHSHEDDNPFAEYMWMENEEEFNRQIEEELWEEEFIERCFQEMLEEEEEHEWFIPARDLPQTMDQIQDQFNDLVISDGSSLEDLVVKSNLNPNAKEAVPGVKYGNI [F118A]

From IntAct's records for PubMed 14685257
